# Experimental data as given in the RNAGym collection of RNA variant scans (doi:10.1073/pnas.2313332121).
# B1: TPR t1 (parent)
# chain: GACCAAUCUGCCCUCAGAGCUCGAGAACAUCUUCGGAUGCAGAGGAGGCAGGCUUCGGUGGCGCGAUAGCGCCAACGUCCUCAACCUCCAAUGCAUCCCACCACAUGAUGAUGCCUGAAGAGCCUUGGUUUUUUG
# Variants of: B1
# Experiment: polymerase ribozyme fitness, log enrichment relative to wild type (log ratio); higher = more active; in vitro selection for triplet polymerase activity
# In short: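 After PCR construction and transcription, each subunit's mutant library from a heterodimeric triplet polymerase ribozyme was annealed with a biotinylated primer, the partner subunit and triplets. Incubation was frozen, at −7 °C, and extended constructs were gel-excised, bound to streptavidin beads and amplified by RT-PCR, in one selection round done in triplicate. Fitness is the logarithm of a genotype's enrichment divided by that of the wild type, from inverse-variance-weighted replicate averages of Illumina-sequenced inputs and outputs. The base of the logarithm is 2, and genotypes needed ≥10 input reads and ≥1 read per output.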
row,Variant,polymerase ribozyme fitness (log ratio)
1,A66C U129A,-2.92
2,G63U U78G,-3.12
3,G63C U92A U132A,-3.33
4,G63A U116C,-0.908
5,A66C G113C,-3.98
6,A66C G69A,-3.84
7,G63U C89U,-1.85
8,A66U A83U,-1.4
9,G63C C70U A90G,0.0962
10,C64U C82U U109A G120U,-6.78
11,C64U C86U G110U G122A,-4.18
12,G63C U78A G110U,-3.31
13,G63U G120U G135U,-2.56
14,G63C C115U,-1.32
15,C64A U78G,-6.68
16,C64A U78C,-6.04
17,C64U G135U,-0.52
18,G63C C85A,-3.22
19,G63U C89A G113A G120C U129G,-5.25
20,G63C G93U,-1.7
21,G63A U109C,-2.75
22,G63A U131G G135U,-0.787
23,G63C C89U,-1.31
24,C64G C102U C124U,-6.08

row,Variant,polymerase ribozyme fitness (log ratio)
1,C64U G120A G135A,0.278
2,G63C G117C A119U,-4.1
3,A66G C72A C79A A84U,-4.61
4,C64U G71U C88U,-5.13
5,A66C A90G C114G,-4.05
6,G63C G65A G117C A119G A121C,-7.02
7,C64U C88U G122A,-0.852
8,C64U A111U,-3.24
9,C64U A111C,0.336
10,G63U U87A G122U,-1.97
11,A66U C73A C89U,-1.72
12,C64G C89U C123U,-5.79
13,C64A C88G,-6.08
14,G63A U78C G113A,-1.96
15,G63U A84C U130A,-2.23
16,G63C C101U,-1.5
17,G63U A90U,-3.53
18,C64U U106C,-0.52
19,G63U C124U,0.0528
20,C64G U78C C115A,-5.99
21,G63C C80U,-2.4
22,G63C U116C,-1.29
23,G63U G77C C86G,-4.32
24,G63U C94G,-1.4

row,Variant,polymerase ribozyme fitness (log ratio)
1,G63U C70A G127C,-0.596
2,C64U C76A G120U,-5.9
3,G63C U126G,-1.74
4,G63A U126G,-2.3
5,G63U G69C,-4.76
6,G63U G128A,-3.29
7,A66G G127U,-1.49
8,G63A U112C,0.988
9,C64U C99U,-2.88
10,C64U C114A,-1.4
11,C64U C114U,-1.47
12,C64G U112A U126C,-5.9
13,A66C A91U,-4.65
14,G63C G117U G120A,-2.53
15,C64U C114U U125A,-2.95
16,G63A G122A,-1.62
17,G63C C94A,-1.52
18,G63U G110A,-1.81
19,G63U G110U,-3.12
20,G63A U87G A111C,-1.52
21,G63U C88A,-1.89
22,G63C U116A C123U,-1.91
23,A66C U130G U133A,-1.91
24,C64A C82G A121C,-7.17

row,Variant,polymerase ribozyme fitness (log ratio)
1,C64A U133A,-6.16
2,G63A U126G U130G,-4.43
3,G63A U131G,-1.53
4,C64U C94A,-0.615
5,C64G U112A,-4.73
6,G63A U133A,-0.918
7,G63U G120A,-0.542
8,C64A U78C C123U,-4.49
9,G63C A90C,-2.06
10,G63C A90U,-2.23
11,C64U U78C U96C C124U U126C U133G,-0.424
12,G63A U106A,-1.29
13,G63A U106G,-2.57
14,C64U A74C,-0.717
15,G63U G113A G128U,-4.06
16,C64U A66U C124A,1.13
17,A66G U116C,-2.62
18,G63C G128C,-3.04
19,C64G C98U,-6.14
20,A66U C73U A83U A100U C123U U125G,-2.19
21,C64U G117A,-1.12
22,C64U U116G G117C,-2.86
23,C64A U87A,-6.3
24,C64U C82U A95G,-0.455

row,Variant,polymerase ribozyme fitness (log ratio)
1,C64A A66C U109C,-6.74
2,G63C C88A,-1.08
3,G63C C88U,-1.29
4,A66G C82U C88G C124U,-0.202
5,G63U C85U U130A,-2.02
6,A66U A84U G110C U130C,-5.62
7,C64U A103G,-4.77
8,G63C U78C A105C,-3.52
9,C64U C115A U125A,-0.872
10,G65C C123G,-3.83
11,C64U C72U A90C C104A A111G G127A G135A,-4.26
12,G63C C79G,-0.109
13,C64G A84U U112A,-6.14
14,G63C C79U G117U,-2.56
15,G63C G77C,-2.42
16,G63U C123A,-0.845
17,G65A C88U,-5.19
18,G63C U92A,-4.04
19,G63C G117C C123G,-2.31
20,G63C G113U,-3.35
21,G63U G93U,-1.76
22,C64U G107A,-3.01
23,A66G U109A,-6.35
24,G63A G120A,-0.19

row,Variant,polymerase ribozyme fitness (log ratio)
1,G63U A84U C86A G128U U130C,-3.81
2,C64U C73A U131A,-0.288
3,G63U G77U U78C,-2.41
4,A66G,-0.466
5,A66U,-0.954
6,A66C,-1.32
7,C64U A95G,-1.52
8,A66G G77A C94U C115A U132A,-0.858
9,C64A C73G,-6.34
10,G63A U78C A83G C88G,-3
11,G63U U92A,-5.39
12,C64U C72U U106G G127C,-2.97
13,A66C G69A C123U U126A,-4.63
14,A66U A68G C73A C82A,-4.09
15,A66C C70A,-3.75
16,G63C C85U A111C G122C,-3.75
17,A66U C85U G117A,-4.29
18,C64U U78G,-0.112
19,C64U U92C G113A G127U U131C,-3.48
20,G65U G71A,-4.69
21,A66U A84U C89U U112G,-2.3
22,A66U C79U,-0.834
23,C64U A118U,0.459
24,G63C A66U G77C A91C C94A,-6.25

row,Variant,polymerase ribozyme fitness (log ratio)
1,C64U C82U C89A,-1.79
2,G63U C114U,-3.25
3,G63U C114A,-3.04
4,G63C C72U G107A C124U,-6.17
5,A66U C72U C115G,-2.47
6,C64U C70G C79U A111U U112A C124A,-5.81
7,G63A U81C A90U,-4.66
8,G63A G113U,-2.82
9,A66G C79G G120A,-3.49
10,C64A C79U C102A A119G,-7.09
11,G63C C102A,-2.59
12,A66C C94U,-0.92
13,G63C C85G U130G,-1.36
14,A66U A68G,-3.88
15,C64A A121C,-4.57
16,G63U U78C A108G,-6.17
17,G63U C102A,-3.78
18,G63A G128U,-3.07
19,G63C U130C,-1.1
20,C64U G127C,-1.82
21,G63U C82A C104U A108C,-6.05
22,C64A U78C U81G G120A,-6.42
23,G63A U96G C124U,0.174
